Source: US20120128661A1 (ALETHIA BIOTHERAPEUTICS, published 2012)
Substitutions are numbered along the chain they refer to. “And” between values parts separate entries of the source, which are not always exact repeats. Identical values can stand only once. Like-named read-outs stand apart in the source and are kept apart here.

T1: monomeric recombinant KAAG1 (human, UniProt Q9UBP8 1-84, limits assumed)
T1 construct: Analyte of the Biacore experiment
T1 sequence: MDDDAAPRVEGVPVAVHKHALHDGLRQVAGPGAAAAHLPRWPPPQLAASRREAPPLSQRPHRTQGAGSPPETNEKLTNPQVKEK

T2: recombinant Fc-KAAG1 fusion protein (full-length human KAAG1 fused to human Fc, from pYD5-0447 in 293E cells) (human, UniProt Q9UBP8 1-84, biotinylated with NHS-biotin for the ELISA (sites not given))
T2 construct: Order of parts follows the printed name Fc-KAAG1; also called recombinant KAAG1; not shown: its limits and the linker to KAAG
T2 sequence: T1 sequence

T3: Fc-fused truncated mutant of KAAG1 spanning amino acids 1-35 (human)
T3 construct: Made and purified like the full-length Fc-KAAG1; also called KAAG1 1-35
T3 chain: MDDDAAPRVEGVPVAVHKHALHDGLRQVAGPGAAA

B1: 3D3 hybrid antibody: chimeric light chain expressed with the humanized heavy chain (antibody, human IgG1, V domains shown)
VH: EVQLVQSGAEVKKPGASVKVSCKASGYIFTDYEIHWVRQAPGQGLEWMGVIDPETGNTAFNQKFKGRVTITADTSTSTAYMELSSLTSEDTAVYYCMGYSDYWGQGTLVTVSS
VL: DIVMTQSPSSLAVSIGQKVTMNCKSSQSLLNSNFQKNFLAWYQQKPGQSPKLLIYFASTRESSIPDRFIGSGSGTDFTLTISSVQAEDLADYFCQQHYSTPLTFGAGTKLELKA
B2: humanized 3D3 anti-KAAG1 antibody (human IgG1) (antibody, V domains shown)
VH: B1 VH
VL: DIVMTQSPDSLAVSLGERATINCKSSQSLLNSNFQKNFLAWYQQKPGQPPKLLIYFASTRESSVPDRFSGSGSGTDFTLTISSLQAEDVAVYYCQQHYSTPLTFGQGTKLEIKR
notes: The residues before them (leader) are left out on that ground; also called h3D3; HH
B3: 3C4 mouse anti-KAAG1 Fab (Fab, V domains shown)
VH: EVQLQESGPDLVKPSQSLSLTCTVTGFSITSGYGWHWIRQFPGNKLEWMGYINYDGHNDYNPSLKSRISITQDTSKNQFFLQLNSVTTEDTATYYCASSYDGLFAYWGQGTLVTVSA
VL: DIVMSQSPSSMYASLGERVTITCKASQDIHNFLNWFQQKPGKSPKTLIFRANRLVDGVPSRFSGSGSGQDYSLTISSLEFEDLGIYSCLQYDEIPLTFGAGTKLELR
notes: Recombinant mouse Fab made in E. coli; also called 3C4 Fab
B4: anti-KAAG1 Fab of well C2 (plate from Omniclonal library #3) (Fab, V domains shown)
VH: B3 VH with E1D, N53S, Y54F, D55N, H57D, N58S, D59N, Q72R, T88S, T111P
VL: DIQMTQSPSSMYASLGERVTLTCKASQDIHNYLNWFQQKPGKSPKTLIHRANRLVAGVPSRFSGSGSGQDYSLTISSLEYEDLGIYYCLQYDAFPLTFGAGTKLELK
B5: anti-KAAG1 Fab of well D1 (plate from Omniclonal library #3) (Fab, V domains shown)
VH: B3 VH with N44D, N53S, Y54F, D55N, H57D, N58Y, D59N, Q72R, N84S
VL: B4 VL with Q3K, L21I, N31T, K45E, H49Y, A56D, L83M, A93E
B6: 3G10 mouse anti-KAAG1 Fab (Fab, V domains shown)
VH: EIQLQQSGPELVKPGASVKISCKASGYTFTDNYMNWVKQSHGKSLEWIGDINPYYGTTTYNQKFKGKATLTVDKSSRTAYMELRGLTSEDSAVYYCARDDWFDYWGQGTLVTVSA
VL: DVLMTQTPRSLSVSLGDQASISCRSSQSLLHSNGNTYLEWYLQKPGQPPKVLIYKVSNRFSGVPDRFSGSGSGTDFTLKISGVEAEDLGVYYCFQGSHVPLTFGAGTKLELK
notes: Recombinant mouse Fab made in E. coli; also called 3G10 Fab
B7: 3D3 mouse anti-KAAG1 Fab (Fab, V domains shown)
VH: EVQLQQSVAELVRPGASVTLSCKASGYIFTDYEIHWVKQTPVHGLEWIGVIDPETGNTAFNQKFKGKATLTADISSSTAYMELSSLTSEDSAVYYCMGYSDYWGQGTTLTVSS
VL: DIVMTQSPSSLAVSIGQKVTMNCKSSQSLLNSNFQKNFLAWYQQKPGQSPKLLIYFASTRESSIPDRFIGSGSGTDFTLTISSVQAEDLADYFCQQHYSTPLTFGAGTKLELK
notes: Recombinant mouse Fab made in E. coli; also called 3D3 Fab
B8: G12 (Fab, V domains shown)
VH: B7 VH with L20V, V42A
VL: DIVMTQSPKFMSTSVGDRVSITCKASQDVGTAVAWYQQKPGQSPELLIYWTSTRHTGVPDRFSGSGSGTDFTLTISSVQAEDLADYFCQQHYSIPLTFGAGTKLELR
B9: 3D3 mouse-human chimeric IgG1 anti-KAAG1 monoclonal antibody (antibody, V domains shown)
VH: B7 VH
VL: B1 VL
notes: Mouse variable regions on human IgG1 and kappa constant regions, made in 293E cells; In the Biacore experiment two KD values are told for this composition, under the labels m3D3 and CC; also called chimeric 3D3; m3D3
B10: 3D3 hybrid antibody: humanized light chain expressed with the chimeric heavy chain (antibody, V domains shown)
VH: B7 VH
VL: B2 VL
notes: also called HC
B11: anti-KAAG1 Fab of well E10 (plate from Omniclonal library #3) (Fab, V domains shown)
VH: EVQLQQSGPELVKPGASVKISCKASGDTFTDYYMNWVKQSHGKSLEWIGDINPNYGGITYNQKFKGKATLTVDTSSSTAYMELRGLTSEDSAVYYCQAYYRNSDYWGQGTTLTVSS
VL: DIVMTQAAPSVPVTPGESVSISCRSSKSLLHSNGNTYLYWFLQRPGQSPQLLIYRMSNLASGVPDRFSGSGSGTAFTLRISRVEAEDVGVYYCMQHLEYPYTFGGGTKLEIK

Tests used:
[1] = molecular target: T1, monomeric recombinant KAAG1; assay: SPR (Biacore); antibody captured on anti-human Fc, monomeric KAAG1 injected, 1:1 fit, average KD; chimeric light chain, humanized heavy chain (CH)
Protocol: (§1) More precise measurements were conducted using Surface Plasmon Resonance (SPR) in a Biacore instrument. Kinetic analysis was used to compare the affinity of the chimeric 3D3 with the h3D3 as well as with hybrid antibodies encompassing different permutations of the light and heavy chains (see FIG. 18B). Briefly, anti-human Fc was immobilized on the Biacore sensor chip and chimeric or h3D3 was captured on the chip. Different concentrations of monomeric recombinant KAAG1 were injected and the data were globally fitted to a simple 1:1 model to determine the kinetic parameters of the interaction.

[2] = molecular target: T1, monomeric recombinant KAAG1; assay: SPR (Biacore), antibody captured on anti-human Fc, monomeric KAAG1 injected, 1:1 model
Protocol: as §1

[3] = molecular target: T1, monomeric recombinant KAAG1; assay: SPR (Biacore); antibody captured on anti-human Fc, monomeric KAAG1 injected, 1:1 fit, average KD; humanized light and heavy chains (HH)
Protocol: as §1

Fc-0447 1-60 (human) = Fc-0447 1-60 (human) (UniProt Q9UBP8); assay: ELISA, Fab plate on Fc-0447 1-60
[4] = molecular target: T2, recombinant Fc-KAAG1 fusion protein …; assay: ELISA, 1 ng Fab/well on Fc-KAAG1 [D00012 Figure 7C]
Protocol: (§2) The 96-well master plate of monoclonal preparations contained different concentrations of purified anti-KAAG1 Fabs in each well. A second stock master plate was prepared by diluting the Fabs to a final concentration of 10 μg/ml from which all subsequent dilutions were performed for ELISA measurements. To carry out the binding of Fc-KAAG1 to the monoclonal preparations, the Fc-KAAG1 was biotinylated with NHS-biotin (Pierce, Rockford, Ill.) and 10 ng/well was coated in a streptavidin 96-well plate. One nanogram of each Fab monoclonal preparation was added to each well and incubated at room temperature for 30 minutes. Bound antibody was detected with HRP-conjugated mouse anti-kappa light chain antibody in the presence of TMB liquid substrate (Sigma-Aldrich Canada Ltd., Oakville, ON) and readings were conducted at 450 nm in microtiter plate reader.

[5] = molecular target: T3, Fc-fused truncated mutant of KAAG1 …; assay: ELISA, Fab plate on Fc-0447 1-35
[6] = molecular target: T2, recombinant Fc-KAAG1 fusion protein …; assay: ELISA on recombinant Fc-KAAG1
Protocol: as §2
Expression of human IgG1s in 293E cells—The expression vectors prepared above that encoded the light and heavy chain immunoglobulins were expressed in 293E cells using the transient transfection system (Durocher et al., 2002). The methods used for co-transfecting the light and heavy chain expression vectors were described in Example 5. […] The ability of the chimeric anti-KAAG1 monoclonal antibodies to bind to recombinant Fc-KAAG1 was measured in the ELISA and compared with the original mouse Fabs. The method was described in Example 5. […]

[7] = molecular target: T1, monomeric recombinant KAAG1; assay: SPR (Biacore); antibody captured on anti-human Fc, monomeric KAAG1 injected, 1:1 fit, average KD; chimeric light + chimeric heavy chain co-expressed, 'CC' of the permutation set
Protocol: as §1

[8] = molecular target: T2, recombinant Fc-KAAG1 fusion protein …; assay: ELISA on recombinant Fc-KAAG1; remark: listed apart in the source
[9] = molecular target: T1, monomeric recombinant KAAG1; assay: SPR (Biacore); antibody captured on anti-human Fc, monomeric KAAG1 injected, 1:1 fit, average KD; chimeric 3D3 tabulated as m3D3 in FIG. 18B
Protocol: as §1

[10] = molecular target: T1, monomeric recombinant KAAG1; assay: SPR (Biacore); antibody captured on anti-human Fc, monomeric KAAG1 injected, 1:1 fit, average KD; humanized light chain, chimeric heavy chain (HC)
Protocol: as §1

| Binder | Ka [2] | koff [2] | kon [2] | OD450 [4] [OD450] | further results |
| --- | --- | --- | --- | --- | --- |
| B1 | 1.98e+09 M⁻¹ | 0.00111 s⁻¹ | 2.2e+06 M⁻¹ s⁻¹ | – | Kd [1]: 0.505 nM |
| B2 | 2.28e+09 M⁻¹ | 0.00111 s⁻¹ | 2.53e+06 M⁻¹ s⁻¹ | – | Kd [3]: 0.439 nM |
| B3 | – | – | – | 0.25 | OD450 (Fc-0447 1-60 (human)): 0.57 OD450 |
| B4 | – | – | – | 0.32 | OD450 [5]: 1.97 OD450 |
| B5 | – | – | – | 0.15 | OD450 [5]: 1.21 OD450 |
| B6 | – | – | – | 2.78 | – |
| B7 | – | – | – | 1.21 | EC50 (read off the curve) [6]: ~0.5 µg/mL; OD450 (Fc-0447 1-60 (human)): 1.33 OD450 |
| B8 | – | – | – | 1.38 | – |
| B9 | 4.5e+09 M⁻¹ and 2.71e+09 M⁻¹ | 0.00065 s⁻¹ and 0.00073 s⁻¹ | 2.91e+06 M⁻¹ s⁻¹ and 1.98e+06 M⁻¹ s⁻¹ | – | Kd [7]: 0.271 nM; Kd [2]: 0.368 nM; EC50 (read off the curve) [8]: ~0.4 µg/mL; Kd [9]: 0.235 nM |
| B10 | 3.24e+09 M⁻¹ | 0.00073 s⁻¹ | 2.36e+06 M⁻¹ s⁻¹ | – | Kd [10]: 0.309 nM |
| B11 | – | – | – | 0.02 | OD450 [5]: 0.33 OD450; OD450 (Fc-0447 1-60 (human)): -0.02 OD450 |
